These results are taken from paper PMC10094569.

For the experiment, the target named is human IgG1 Fc, from HEK-293T cells (human). Description: SEC; each protein alone on Superdex 200 in PBS; molecular weights from the filtration patterns. Background: In gel filtration, larger molecules generally elute earlier.

“human IgG1 Fc, from HEK-293T cells (domain or fragment)” showed a stoichiometry N of 2.

In general, stoichiometry N refers to the number of molecules, sites or subunits per partner or assembly.
